Test results from paper PMC4733404 (Cell, 2016).

Target: EBOV GP, soluble form of the full-length extracellular domain (Zaire ebolavirus, strain  …, UniProt Q05320)
Test: ELISA

Sequence of EBOV GP, soluble form of the full-length extracellular domain (Q05320 33-650): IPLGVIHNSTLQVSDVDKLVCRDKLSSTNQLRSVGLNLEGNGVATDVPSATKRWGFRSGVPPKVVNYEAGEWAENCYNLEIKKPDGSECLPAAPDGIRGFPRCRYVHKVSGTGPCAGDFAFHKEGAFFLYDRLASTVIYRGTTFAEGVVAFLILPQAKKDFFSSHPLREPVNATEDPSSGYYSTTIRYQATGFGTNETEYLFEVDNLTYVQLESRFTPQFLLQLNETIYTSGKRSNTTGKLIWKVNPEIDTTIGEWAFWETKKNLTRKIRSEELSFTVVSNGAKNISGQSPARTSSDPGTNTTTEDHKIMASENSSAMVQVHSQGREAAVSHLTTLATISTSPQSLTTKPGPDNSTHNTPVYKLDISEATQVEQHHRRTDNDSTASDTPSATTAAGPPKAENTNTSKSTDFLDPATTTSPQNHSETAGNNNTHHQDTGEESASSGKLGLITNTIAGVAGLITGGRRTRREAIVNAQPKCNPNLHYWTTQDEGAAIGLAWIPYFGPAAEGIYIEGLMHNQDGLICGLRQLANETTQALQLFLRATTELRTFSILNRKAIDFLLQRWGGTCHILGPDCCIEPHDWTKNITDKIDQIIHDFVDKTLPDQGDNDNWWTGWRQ

B1: BDBV289, human mAb (antibody, V domains shown)
VH: QVQLVQSGAEVKKPGSSVKVSCKASGATFGSDTVTWVRQAPGQGLEWMGGIIPFFGEANYAQRFQGRVTITADKSTNTAYMELSSLRSEDTAVYFCARQINEMATFGEIHYYTYMDVWGQGTLVTVSS
VL: GSELTQDPAVSVALGQTVRITCQGDSLRNYYASWYQQKPRQAPVLVFYGKNNRPSGIPDRFSGSSSGNTASLTISGAQAEDEADYYCNSRDSSSNHLVFGGGTKLTVL
binding result: binds
